# According to publication PMC7934869:
# Tests used:
# [1] = target: human neonatal Fc receptor (FcRn) (human) (UniProt P55899); test: BLI; Octet RED384; receptors loaded on HIS1K or SAX biosensors and probed into mAbs in a 2-fold dilution series (20, 10, 5, 2.5, 1.25 μg/mL); pH 6.0; 1:1 model; apparent
# [2] = target: rhesus neonatal Fc receptor (FcRn) (rhesus) (UniProt Q6V7J5); test: as above
# [3] = target: human Fc gamma receptor IIIB, polymorphism NA1 (human) (UniProt O75015); test: BLI; Octet RED384; receptors loaded on HIS1K or SAX biosensors, probed into mAbs in a dilution series (2000, 100, 50, 25, 12.5 ug/mL [sic]); pH 7.4; 1:1 model; apparent affinity
# Chain of human Fc gamma receptor IIIB, polymorphism NA1 (human) (O75015 17-233): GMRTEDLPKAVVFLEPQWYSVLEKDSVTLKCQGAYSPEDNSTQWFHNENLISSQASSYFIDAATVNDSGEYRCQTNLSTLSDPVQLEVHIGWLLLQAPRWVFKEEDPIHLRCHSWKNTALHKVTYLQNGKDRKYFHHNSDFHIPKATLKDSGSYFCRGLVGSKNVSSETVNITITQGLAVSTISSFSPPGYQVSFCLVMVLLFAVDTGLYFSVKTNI
# [4] = target: human Fc gamma receptor IIIA, polymorphism F176 (human) (UniProt P08637); test: as above
# Chain of human Fc gamma receptor IIIA, polymorphism F176 (human) (P08637 17-208): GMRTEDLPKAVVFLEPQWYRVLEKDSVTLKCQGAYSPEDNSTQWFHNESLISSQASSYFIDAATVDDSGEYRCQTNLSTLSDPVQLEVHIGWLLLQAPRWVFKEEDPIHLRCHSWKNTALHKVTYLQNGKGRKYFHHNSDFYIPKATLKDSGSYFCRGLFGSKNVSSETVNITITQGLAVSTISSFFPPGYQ
# [5] = target: human Fc gamma receptor IIA, polymorphism H167 (human) (UniProt P12318); test: as above
# Chain of human Fc gamma receptor IIA, polymorphism H167 (human) (P12318 34-217): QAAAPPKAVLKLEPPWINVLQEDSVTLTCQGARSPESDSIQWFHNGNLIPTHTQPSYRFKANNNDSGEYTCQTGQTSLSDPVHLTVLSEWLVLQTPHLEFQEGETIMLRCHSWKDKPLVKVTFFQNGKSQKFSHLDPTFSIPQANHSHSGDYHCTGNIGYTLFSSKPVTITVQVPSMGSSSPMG
# [6] = target: human Fc gamma receptor IIA, polymorphism R167 (human) (UniProt P12318); test: as above
# Chain of human Fc gamma receptor IIA, polymorphism R167 (human) (P12318 34-217 H167R): as the sequence (P12318 34-217) above, with H134R counted along it
# [7] = target: human Fc gamma receptor IIIB, polymorphism NA2 (human) (UniProt O75015); test: as above
# [8] = target: human Fc gamma receptor I (FcγRI) (human) (UniProt P12314); test: as above
# Chain of human Fc gamma receptor I (FcγRI) (human) (P12314 16-292): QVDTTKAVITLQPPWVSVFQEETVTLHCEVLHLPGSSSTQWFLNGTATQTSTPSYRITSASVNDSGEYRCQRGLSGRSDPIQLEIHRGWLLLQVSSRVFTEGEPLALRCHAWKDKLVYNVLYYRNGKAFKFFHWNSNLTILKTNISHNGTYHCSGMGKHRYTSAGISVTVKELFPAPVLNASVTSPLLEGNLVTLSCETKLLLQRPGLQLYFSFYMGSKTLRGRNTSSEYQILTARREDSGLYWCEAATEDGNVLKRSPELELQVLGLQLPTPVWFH
# [9] = target: human Fc gamma receptor IIIA, polymorphism V176 (human) (UniProt P08637); test: as above
# Chain of human Fc gamma receptor IIIA, polymorphism V176 (human) (P08637 17-208 F176V): as the sequence (P08637 17-208) above, with F160V counted along it
# [10] = target: human Fc gamma receptor IIB (FcγRIIB) (human) (UniProt P31994); test: as above
# Chain of human Fc gamma receptor IIB (FcγRIIB) (human) (P31994 43-217): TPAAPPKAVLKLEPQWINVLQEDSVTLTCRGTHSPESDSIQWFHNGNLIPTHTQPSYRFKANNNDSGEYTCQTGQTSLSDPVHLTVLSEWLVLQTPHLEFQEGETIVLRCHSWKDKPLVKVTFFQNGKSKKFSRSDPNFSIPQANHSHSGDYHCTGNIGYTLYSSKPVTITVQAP
# [11] = target: human neonatal Fc receptor (FcRn) (human) (UniProt P55899); test: BLI; Octet RED384; receptors loaded on HIS1K or SAX biosensors and probed into mAbs in a dilution series (2000, 100, 50, 25, 12.5 μg/mL as printed); pH 7.4; 1:1 model; apparent
# [12] = target: rhesus neonatal Fc receptor (FcRn) (rhesus) (UniProt Q6V7J5); test: as above
# Chain of human neonatal Fc receptor (FcRn) (human) (P55899 24-297, chain 1 of 2): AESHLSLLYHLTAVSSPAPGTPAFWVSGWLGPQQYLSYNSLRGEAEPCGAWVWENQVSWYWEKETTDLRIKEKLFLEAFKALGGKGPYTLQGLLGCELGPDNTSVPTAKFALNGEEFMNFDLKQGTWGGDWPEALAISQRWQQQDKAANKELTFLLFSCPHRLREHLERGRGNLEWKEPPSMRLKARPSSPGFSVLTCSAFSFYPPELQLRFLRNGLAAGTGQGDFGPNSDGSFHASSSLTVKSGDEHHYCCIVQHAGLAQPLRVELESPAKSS
# Chain of human neonatal Fc receptor (FcRn) (human) (P61769 21-119, chain 2 of 2, further chain): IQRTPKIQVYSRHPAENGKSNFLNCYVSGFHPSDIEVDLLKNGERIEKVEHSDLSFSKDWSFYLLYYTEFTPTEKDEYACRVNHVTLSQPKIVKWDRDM
Substance,Kd [1] [nM],Kd [2] [nM],Kd [3] [nM],koff [3] [s⁻¹],kon [3] [M⁻¹ s⁻¹],Kd [5] [nM],koff [5] [s⁻¹],kon [5] [M⁻¹ s⁻¹],Kd [6] [nM],koff [6] [s⁻¹],kon [6] [M⁻¹ s⁻¹],Kd [7] [nM],koff [7] [s⁻¹],kon [7] [M⁻¹ s⁻¹],Kd [8] [nM],koff [8] [s⁻¹],kon [8] [M⁻¹ s⁻¹],Kd [9] [nM],koff [9] [s⁻¹],kon [9] [M⁻¹ s⁻¹],other results
CIS43 (antibody),54.2,326,,,,,,,,,,,,,,,,,,,
CIS43 human monoclonal antibody,,,1030,0.442,430000,3840,0.676,176000,1480,0.514,348000,1280,0.419,327000,14.8,0.00278,187000,652,0.105,161000,Kd [4]: 1740 nM; koff [4]: 0.273 s⁻¹; kon [4]: 157000 M⁻¹ s⁻¹; Kd [10]: 3130 nM; koff [10]: 0.812 s⁻¹; kon [10]: 259000 M⁻¹ s⁻¹
CIS43LS (CIS43 with the LS mutations M451L/N457S in the CH3 domain of the Fc region) (antibody),,,1190,0.356,300000,2490,0.598,240000,764,0.349,457000,854,0.25,293000,15.8,0.00308,194000,550,0.0433,78700,Kd [10]: 3800 nM; koff [10]: 0.874 s⁻¹; kon [10]: 230000 M⁻¹ s⁻¹
CIS43LS (antibody),6.2,25.1,,,,,,,,,,,,,,,,,,,Kd [11]: 234 nM; Kd [12]: 262 nM
